This note sets out measurements from patent US11913033B2, “Luciferases and methods for using same” (LIGHT BIO, INC., priority 2017, dated 2024).

For one data set, the system named is fungal luciferases. In words: Bioluminescence spectra of lysed transfected HEK293N cells with 3-hydroxyhispidin or analogs. The format is biochemical. Particulars: luciferin 660 μg/ml, pH 8.0, cell lysate. The procedure: Plasmids comprising coding sequences of fungal luciferases necessary for expression in mammalian cells were obtained as described in Example 3 and used for the transfection of HEK293N cells. 24 hours after the transfection procedure, the cells were detached from dishes using trypsin-Versen solution (0.025% trypsin), the medium was substituted with a phosphate saline buffer, pH 8.0, by centrifugation, the cells were resuspended and lysed using ultrasound; 3-hydroxyhispidin or one of analogs thereof ((E)-6-(4-diethylamino)styryl)-3,4-dihydroxy-2H-pyran-2-one, (E)-3,4-dihydroxy-6-(4-hydroxystyryl)-2H-pyran-2-one, E)-6-(2-1H-indol-3-yl)vinyl)-3,4-dihydroxy-2H-pyran-2-one, (E)-6-(2-(1,2,3,5,6,7-hexahydropyrido[3,2,1-ij]quinoline-9-yl)vinyl)-3,4-dihydroxy-2H-pyran-2-one and (E)-3,4-dihydroxy-6-(2-(6-hydroxynaphthalene-2-yl)vinyl)-2H-pyran-2-one) at a concentration of 660 μg/ml was added to the medium.
Varian Cary Eclipse spectrofluorimeter was used to detect bioluminescence spectra. All the samples emitted light with all examined luciferins.

Data set [1] concerns CT26 cells (Mus musculus carcinoma cells). In words: Labelling of implanted tumour cells in a living mouse, IVIS imaging. The format is in vivo. Particulars: subcutaneous CT26 cells; luciferin mixture 0.5 mg each intraperitoneally. The procedure: Vector containing the coding sequence of luciferase from Neonothopanus nambi under the control of a cytomegaloviral promoter was obtained as described in Example 3. In addition, a humanized nucleotide sequence encoding luciferase from Photinus pyralis firefly was synthesized and cloned into the same vector.
The obtained constructs were used to transfect CT26 cells (Mus musculus carcinoma cells). The cells expressing luciferase from Neonothopanus nambi were injected subcutaneously into the left half of a mouse's back, while cells expressing luciferase of Photinus pyralis were injected in the same manner into the right half of a mouse's back. 10 minutes after injection, a mixture of fungal luciferin (0.5 mg) and Photinus pyralis firefly luciferin (0.5 mg) was injected intraperitoneally. Bioluminescence of the mouse was then visualized using IVIS Spectrum CT (PerkinElmer).

Data set [2] can be described thus: Bioluminescence of isolated recombinant luciferase fragments from E. coli with 3-hydroxyhispidin. Particulars: 3-hydroxyhispidin added. The data set is classed as biochemical. The method, then: Sequence SEQ ID No: 52 was operably linked to the 5′ end of the nucleic acids encoding functional fragments of luciferases (SEQ ID NOs: 19, 21, 23, 25, 27, 29, 31, 33); the obtained constructs were cloned into pET-23 vector using BamHI and HindIII restriction endonucleases. The vector was used to transform Escherichia coli cells of BL21-CodonPlus strain (the derivative of Stratagene BL21-Gold high-yield strain) The cells were plated on Petri dishes containing LB medium comprising 1.5% agar, 100 μg/ml of ampicillin and 100 μg/ml of chloramphenicol, and incubated overnight at 37° C. Escherichia coli colonies were then transferred to 4 ml of liquid LB medium supplemented with ampicillin and chloramphenicol and incubated overnight at 37° C., with rocking. 1 ml of the overnight culture was transferred to 100 ml of Overnight Express Autoinduction medium (Novagen) containing preliminary added ampicillin and chloramphenicol. The culture was grown at 37° C. for 2.5 hours until it reached an optical density of 0.6 OE at 600 nm, and then it was grown at room temperature for 16 hours. The cells were then pelleted by centrifugation at 4500 rpm for 20 minutes in Eppendorf 5810R centrifuge, resuspended in 35 ml of buffer (50 mM Tris HCl, pH 8.0, 150 mM NaCl) and sonicated. […]

The subject of another data set is HEK293NT and HeLa cells. In words: Luminescence of mammalian cells transfected with humanized luciferases after adding 3-hydroxyhispidin. The format is cell-based. Particulars: 3-hydroxyhispidin 660 μg/ml, 24 hours after transfection. The text has this: Coding sequences of luciferases obtained as shown in examples 1 and 2 were optimized (humanized) for expression in mammalian cells. Humanized nucleic acids were obtained by oligonucleotide synthesis using standard techniques. The nucleotide profile of humanized nucleic acids is shown in SEQ ID NOs: 44-51, the amino acid profile of the corresponding proteins is identical to wild-type proteins shown in SEQ ID NOs: 2, 4, 6, 8, 10, 12, 14, 16. The obtained nucleic acids were cloned into pmKate2-keratin vector (Evrogen, Russia) using NheI and NotI restriction sites instead of a sequence encoding mKate2-keratin fusion protein. Plasmid DNA was purified and transfected into HEK293NT and HeLa cells using FuGENE HD Transfection Reagent (Promega, USA) according to the manufacturer's protocol. 24 hours after the transfection procedure, 3-hydroxyhispidin at a concentration of 660 μg/ml was added to the medium, and cell luminescence was detected using IVIS Spectrum CT (PerkinElmer). Intensity of light emission of all samples was by an order of magnitude and greater than the signal coming from the non-transfected control cells (FIG. 2). […]

The next data set deals with cells of HEK293NT line. In words: Cell labelling: luciferase co-transfected into HEK293NT cells, microscopy. The data set is classed as cell-based, human. The procedure: Vector containing luciferase from Neonothopanus nambi under the control of a cytomegaloviral promoter obtained as described in Example 3 was co-transfected with pTurboFP635-N vector (Evrogen, Russia) encoding the red fluorescent protein, into the cells of HEK293NT line. Transfection was performed using FuGENE HD transfection reagent (Promega) according to the protocol recommended by the manufacturer. 24 hours after the transfection procedure, 3-hydroxyhispidin was added to the medium up to a final concentration of 660 μg/ml; and cell luminescence was analysed using Leica DM6000 microscope with a 20× objective. The cells were visualized in transmitted light, in the green and red channels for detecting fluorescence (FIG. 6).

Data set [3] can be described thus: Bioluminescence spectrum of luciferase expressed in Pichia pastoris, supernatant plus 3-hydroxyhispidin. The format is biochemical. Particulars: 3-hydroxyhispidin (25 μM) in 1% DDM. The procedure:
In order to analyse the bioluminescence of expressed luciferase, Pichia pastoris colonies in which luminescence was observed were isolated and grown in 750 ml flasks filled with 250 ml of YPD medium for 72 hours at 30° C. and stirred at 200 rpm. Luciferase-expressing cells were then pelleted by centrifugation at 5000 g for 15 minutes at 4° C. The obtained pellet was resuspended in a 0.1 M phosphate buffer, pH 7.4, comprising 0.1% DDM for two hours at 4° C. The suspension was centrifuged at 21000 g for 30 min at 4° C. The bioluminescence reaction was activated by adding 750 μl of the obtained supernatant to 250 μl of the solution of 3-hydroxyhispidin (25 μM) in 1% DDM. Varian Cary Eclipse spectrofluorimeter was used to detect bioluminescence.

Regarding `O=c1oc(/C=C/c2ccc3cc(O)ccc3c2)cc(O)c1O` [(E)-3,4-dihydroxy-6-(2-(6-hydroxynaphthalene-2-yl)vinyl)-2H-pyran-2-one], in the data set on fungal luciferases, the luminescence optimum displacement result is “shift to the long-wavelength region” and the “wavelength of significantly emitted photons” value is given as “more than 580 nm”.
In the case of `O=c1oc(/C=C/c2c[nH]c3ccccc23)cc(O)c1O` [(E)-6-(2-1H-indol-3-yl)vinyl)-3,4-dihydroxy-2H-pyran-2-one], in the data set on fungal luciferases, the luminescence optimum displacement result is recorded as “shift to the short-wavelength region”.
Turning to “luciferase from Photinus pyralis: firefly luciferase from Photinus pyralis, humanized sequence, comparison in mouse tumour labelling [reference compound]”, the “intensity of light emission of tumour” value in data set [1] is 21000000 cu.

B1: functional fragment of luciferase from Neonothopanus nambi: recombinant Neonothopanus nambi luciferase with N-terminal transmembrane domain removed, expressed in E. coli (protein)
chain: IIRRDYQTFLEVGPSYAPQNFRGYIIVCVLSLFRQEQKGLAIYDRLPEKRRWLADLPFREGTRPSITSHIIQRQRTQLVDQEFATRELIDKVIPRVQARHTDKTFLSTSKFEFHAKAIFLLPSIPINDPLNIPSHDTVRRTKREIAHMHDYHDCTLHLALAAQDGKEVLKKGWGQRHPLAGPGVPGPPTEWTFLYAPRNEEEARVVEMIVEASIGYMTNDPAGKIVENAK
modifications: Amino acid sequence of the functional fragment of luciferase from Neonothopanus nambi
notes: recombinant Neonothopanus nambi luciferase with N-terminal transmembrane domain removed, expressed in E. coli
Regarding B1, the “intensity of emitted light, rank among recombinant functional fragments” value in data set [2] is “highest intensity”.

B2: functional fragment of luciferase from Omphalotus olearius: recombinant Omphalotus olearius luciferase with N-terminal transmembrane domain removed, expressed in E. coli (protein)
chain: FIRKDYQTFLEVGPSYAPQNLQGYIIVCVLSLFRQEQKDVAIYDRLPEKRRWLGDLPFREGPRPSITSHIIQRQRTQLADAEFATKELIGKIIPRVQARHTNTTFLSTSKFEFHAQAIFLLPSIPINDPQNIPSHDTVRRTKREIAHMHDYHDCTLHLALAAQDGKEVLEKGWGQRHPLAGPGVPGPPTEWTFLYAPRSEEEVRVVEMIVEASVVYMTNDPADKIVEATVQGTEE
modifications: Amino acid sequence of the functional fragment of luciferase from Omphalotus olearius
notes: recombinant Omphalotus olearius luciferase with N-terminal transmembrane domain removed, expressed in E. coli
Consider B2, for which, in data set [2], the “intensity of emitted light, rank among recombinant functional fragments” value is recorded as “lowest intensity”.

B3: SEQ ID No:51 with the replacement of valine with isoleucine at position 146: Panellus stipticus luciferase variant with valine replaced by isoleucine at position 146 (protein, listed as Panellus stipticus)
chain: MNINLKALIGVCAVLITAAVFPFVRKDYHTFLEGGPSYAPQNLQGYIIVLVLSLFRGEETGLEIYDRLPEKRRWLEELPVREGPRPKTTSHIIQRQLNQHVDPDFGMNSLKGSVIRRLQSRHQDITQLALSKFEFHAEAIFLRPDIAINDPKHVPSHDTVRRTKREIAHMHDYHDYTCHLALAAQDGKQVIAKGWGQRHPLAGPGMPGPPTEWTFLYAPRNEAEVQVLETIIEASIGYMSNAPALGGSE
On to B3, for which, in the data set with HEK293NT and HeLa cells, the “oxidation of 3-hydroxyhispidin in a bioluminescent reaction” value is recorded as “capable of the oxidation of 3-hydroxyhispidin”.

B4: luciferase from Neonothopanus nambi: fungal luciferase from Neonothopanus nambi oxidizing 3-hydroxyhispidin with emission of light (protein, listed as Neonothopanus nambi)
chain: MRINISLSSLFERLSKLSSRSIAITCGVVLASAIAFPIIRRDYQTFLEVGPSYAPQNFRGYIIVCVLSLFRQEQKGLAIYDRLPEKRRWLADLPFREGTRPSITSHIIQRQRTQLVDQEFATRELIDKVIPRVQARHTDKTFLSTSKFEFHAKAIFLLPSIPINDPLNIPSHDTVRRTKREIAHMHDYHDCTLHLALAAQDGKEVLKKGWGQRHPLAGPGVPGPPTEWTFLYAPRNEEEARVVEMIVEASIGYMTNDPAGKIVENAK
As to B4, the “light signal of expressing cells” value in the data set on cells of HEK293NT line (3-hydroxyhispidin 660 μg/ml, 24 hours after transfection) is “distinct light signal in the green region of the spectrum”. Besides, in the data set with cells of HEK293NT line (HEK293NT cells), the “toxicity of luciferase expression to the cells” value is “No signs of toxicity”. Moreover, in data set [1], the “intensity of light emission of tumour” value came to 20000000 cu. Also, the “bioluminescence spectrum compared with Neonothopanus nambi mycelium bioluminescence” value in data set [3] is “substantially identical”.
